Assay results: publication PMC12910678 (Nature, 2021)

Target: SARS-CoV-2 RBD (residues 319-591) (SARS-CoV-2, Wuhan-Hu-1 (MN908947), UniProt P0DTC2)
Test: SPR

B1: C121 IgG (antibody, V domains shown)
VH: not shown
VL: QSALTQPASVSGSPGQSITISCTGTSSDVGSYNLVSWYQQHPGKAPKLMIYEGSKRPSGVSNRFSGSKSGNTASLTISGLQAEDEADYYCCSYAGSSTLVFGGGTKLTVL
B1: binds.
